The results in this text go back to paper PMC8229956.

Assay [1] deals with Oryza sativa TIR1 wild type with nuclear localisation signal (OsTIR1^WT-NLS) (Oryza sativa).
For assay [2] the target is unchanged. This is another data set of the same source.

Mcm4-AID-V5 (from UniProt P93830 1-229) registered a reduction in Mcm4-AID-V5 protein level (anti-V5 immunoblot of total extract, normalised to tubulin) in cells expressing OsTIR1^WT in the absence of NAA, against cells with no OsTIR1 in assay [1] of 14%.
In turn, “Rad52-AID-V5 (from UniProt P93830 1-229)” showed a reduction in Rad52-AID-V5 protein level (anti-V5 immunoblot of total extract, normalised to tubulin) in cells expressing OsTIR1^WT in the absence of NAA, against rad52-AID-V5 cells with no OsTIR1 in assay [2] of 14%.
